This note sets out measurements from patent publication US20200362051A1 (CRESCENDO BIOLOGICS, published 2020).

Experiment [1] addresses T1, human PSMA expressed on cells (human, UniProt Q04609 1-750).
T1 construct: Type II membrane glycoprotein; also called CHO human PSMA; CHO PSMA
Description: dual-binding cell ELISA: CHO-PSMA cells, bound construct detected with 1 nM CD137huFc and anti-huFc-HRP; average ± SD, n=3. The procedure: (§1) Dual target engagement of CD137 and PSMA by the bispecific molecules was assessed using an ELISA format and by flow cytometry with T cells. For ELISA, CHO-PSMA cells (20000/well) were seeded into 96 well plates (Greiner cat no. 353872) in Hams F12 supplemented with L-Glutamine+Blasticidin+Tetracycline and incubated at 37° C. with 5% CO₂ overnight. All subsequent steps were performed at room temperature and included washes with PBS between each step. Plates were blocked with PBS/0.1% BSA for 1 hour then serially diluted Humabody® VH were added and allowed to bind for 1 hour. Following removal of unbound VH, 1 nM CD137huFc (Acro Biosystems cat no. 41B-H5258) was added to the wells and incubated for 1 hour. A 1:3000 dilution of Anti-huFc-HRP (Jackson ImmunoResearch cat no. 109-035-098) was subsequently added for 1 hour and plates developed by addition of TMB. The reaction was stopped by addition of 0.5M sulphuric acid and plates read on BMG PheraStar at Absorbance 450 nm. […] Human CD8+ T cells pre-stimulated for 48 hours with PMA/ionomycin were washed with FACS buffer (PBS supplemented with 10% human serum and 0.05% sodium azide) by centrifugation. Serially diluted bispecific and trispecific Humabody VH construct were added to the cells for 1 hour on ice. Plates were washed with FACS buffer then detection mix containing 5 nM biotinylated-PSMA, 20 nM Streptavidin AlexaFluor488 and Live/Dead NearIR cell stain dilution added. Plates were incubated at 4° C. for 1 hour then washed twice with FACS buffer by centrifugation. Cells were fixed by addition 1× BD Cell fix solution, then washed twice with PBS by centrifugation and the cell pellets resuspended in PBS. Fluorescence was measured in the RL2-H channels (Live/Dead stain) and BL1-H channel (AlexaFluor488 stain) on the iQue Plus Screener (IntelliCyt). The bispecific and trispecific molecules were able to simultaneously bind human CD8+ T cells and PSMA protein.
In general terms: In an ELISA, binding on a coated surface is turned into a signal by an enzyme label.

Experiment [2] concerns the target T2, human CD137 expressed on cells (human, UniProt Q07011 24-255).
T2 construct: Whole entry with its signal peptide; also called 4-1BB; TNFRS9
Description: dual-binding flow cytometry: pre-stimulated human CD8+ T cells, bound construct detected with 5 nM biotinylated-PSMA and streptavidin-AlexaFluor488; average ± SD, at least 6 donors. The method, then:
as §1, with “Serially diluted bispecific and trispecific Humabody VH construct were added to the cells for 1 hour on ice. Plates were washed with FACS buffer then detection mix containing 5 nM biotinylated-PSMA, 20 nM Streptavidin AlexaFluor488 and Live/Dead NearIR cell stain dilution added. Plates were incubated at 4° C. for 1 hour then washed twice with FACS buffer by centrifugation. Cells were fixed by addition 1× BD Cell fix solution, then washed twice with PBS by centrifugation and the cell pellets resuspended in PBS.” left out, “The bispecific and trispecific molecules were able to simultaneously bind human CD8+ T cells and PSMA protein.” left out

Experiment [3] deals with T3, rhesus CD137-human IgG1 Fc tagged protein (rhesus; human, UniProt F6W5G6 24-186).
T3 construct: also called rhesus CD137Fc; rhesus CD137Fc recombinant protein
T3 sequence: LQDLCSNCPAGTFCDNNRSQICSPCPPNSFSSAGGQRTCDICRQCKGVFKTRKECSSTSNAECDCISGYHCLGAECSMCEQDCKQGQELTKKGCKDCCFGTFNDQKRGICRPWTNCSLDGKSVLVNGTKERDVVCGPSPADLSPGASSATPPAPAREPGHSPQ
Nature of the experiment: SPR (Biacore T200), single cycle kinetics, rhesus CD137-Fc captured on Protein G chip, 25 C, 1:1 fit; average ± SD. The procedure:
(§2) The Biacore T200 instrument was used to study the interaction between VH with human and rhesus CD137-human IgG1 Fc tagged protein by surface plasmon resonance (SPR). Single cycle kinetics assays used to evaluate the kinetics and affinity of the interaction. Experiments were performed at 25° C. in HBS-EP+ assay buffer with a flow rate of 30 μl/minute. A Protein G chip was used to capture the Fc tagged recombinant CD137 diluted to 2 μg/ml to one of the flow cells over 7 seconds. A second flow cell without any captured CD137 was used as the reference cell. A five point, three-fold dilution series of VH was made with a top concentration of 60 nM. The binding kinetics were followed by flowing these over the chip surface. The contact time for each of the binding steps was 180 seconds and the dissociation step was 1800 and 3600 seconds for rhesus and human CD137 respectively. After each run, the sensors were regenerated with glycine pH 1.5 to remove the captured CD137. The data was fitted to a 1:1 binding model after double reference subtraction using the Biacore T200 Evaluation software.
(SPR reads the build-up and loss of mass on a sensor chip optically.)

Experiment [4] addresses T3, rhesus CD137-human IgG1 Fc tagged …. Nature of the experiment: SPR (Biacore T200), single cycle kinetics, rhesus CD137-Fc captured on Protein G chip, 25 C, 1:1 fit. The procedure: as §2
Experiment [5] addresses T4, cynomolgus PSMA expressed on CHO cells (cynomolgus, UniProt A0A2K5VNZ0 1-750).
T4 construct: whole, on cells; also called CHO cynomolgus PSMA cells
Description: FMAT, CHO cynomolgus PSMA cells, detection with CD137huFc and anti human Fc-Alexa Fluor-488; n=3.

For experiment [6], the target named is T5, human CD137-human Fc chimeric protein (Acro Biosystems cat no. 41B-H5258) (human, UniProt Q07011 24-186).
T5 construct: Bought protein; also called CD137-Fc tag protein; CD137huFc; not shown: human IgG1 Fc
Nature of the experiment: dual binding cell based ELISA: serially diluted VH on plated CHO human PSMA cells, then 1 nM CD137huFc, detection with anti human Fc-HRP, absorbance 450 nm. The procedure: Association 1—Binding of the trispecific molecule to CD137Fc captured on protein G biosensors. Association 2—binding of Human serum Albumin, Association 3—Binding of PSMA in the presence of Human serum albumin to minimise HSA dissociation. […] Dual target engagement of CD137 and PSMA by the bispecific molecules was assessed using an ELISA format and by flow cytometry with T cells. For ELISA, CHO-PSMA cells (20000/well) were seeded into 96 well plates (Greiner cat no. 353872) in Hams F12 supplemented with L-Glutamine+Blasticidin+Tetracycline and incubated at 37° C. with 5% CO₂ overnight. All subsequent steps were performed at room temperature and included washes with PBS between each step. Plates were blocked with PBS/0.1% BSA for 1 hour then serially diluted Humabody® VH were added and allowed to bind for 1 hour. Following removal of unbound VH, 1 nM CD137huFc (Acro Biosystems cat no. 41B-H5258) was added to the wells and incubated for 1 hour. A 1:3000 dilution of Anti-huFc-HRP (Jackson ImmunoResearch cat no. 109-035-098) was subsequently added for 1 hour and plates developed by addition of TMB. The reaction was stopped by addition of 0.5M sulphuric acid and plates read on BMG PheraStar at Absorbance 450 nm. […] Fluorescence was measured in the RL2-H channels (Live/Dead stain) and BL1-H channel (AlexaFluor488 stain) on the iQue Plus Screener (IntelliCyt). […]

T1 sequence (Q04609 whole entry): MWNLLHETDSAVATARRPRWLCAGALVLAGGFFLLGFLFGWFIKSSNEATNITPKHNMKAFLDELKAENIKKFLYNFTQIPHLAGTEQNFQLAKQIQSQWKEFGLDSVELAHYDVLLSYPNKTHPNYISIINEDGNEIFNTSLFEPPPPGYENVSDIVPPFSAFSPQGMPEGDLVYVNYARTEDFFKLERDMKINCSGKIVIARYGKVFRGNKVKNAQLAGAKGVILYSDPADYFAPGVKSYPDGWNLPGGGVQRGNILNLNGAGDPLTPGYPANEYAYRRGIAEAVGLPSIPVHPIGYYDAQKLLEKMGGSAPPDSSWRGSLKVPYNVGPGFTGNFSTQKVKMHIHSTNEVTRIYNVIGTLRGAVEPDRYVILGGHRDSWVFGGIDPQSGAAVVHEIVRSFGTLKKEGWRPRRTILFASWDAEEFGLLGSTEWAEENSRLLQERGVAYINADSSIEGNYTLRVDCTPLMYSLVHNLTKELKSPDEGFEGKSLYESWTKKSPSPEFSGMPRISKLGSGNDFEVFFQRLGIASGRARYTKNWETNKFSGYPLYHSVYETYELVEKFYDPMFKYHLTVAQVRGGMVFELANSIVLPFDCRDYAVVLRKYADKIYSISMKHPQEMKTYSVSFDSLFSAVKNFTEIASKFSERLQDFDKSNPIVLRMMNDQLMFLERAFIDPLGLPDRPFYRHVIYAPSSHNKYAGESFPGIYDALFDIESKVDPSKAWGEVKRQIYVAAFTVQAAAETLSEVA
T2 sequence (Q07011 24-255 limits assumed): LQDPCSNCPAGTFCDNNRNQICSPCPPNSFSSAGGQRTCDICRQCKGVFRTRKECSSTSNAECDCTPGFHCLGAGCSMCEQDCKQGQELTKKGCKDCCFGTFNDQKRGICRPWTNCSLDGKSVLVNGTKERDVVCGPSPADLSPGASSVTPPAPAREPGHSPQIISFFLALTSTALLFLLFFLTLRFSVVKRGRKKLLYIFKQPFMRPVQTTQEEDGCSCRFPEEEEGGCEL

B1: 4.1-6GS-1.113 (bispecific antibody)
chain: EVQLVESGGGVVQPGRSLRLSCAASGFSFSGYGMHWVRQAPGKGLEWVAYISYDGSNKYYADSVKGRFTISRDNSKNTLYLQMNSLRAEDTAVYYCAKDPAWGLRLGESSSYDFDIWGQGTMVTVSSGGGGSGGGGSGGGGSGGGGSGGGGSGGGGSEVQLVESGGGLVQPGGSLRLSCAASGFTLSNYWMNWVRQAPGKGLEWVANINQDGSERYYVDSVKGRFTISRDNAKNSLYLQMNSLRAEDTAVYYCARGGEGYGVDHYGLDVSGQGTTVTVSS
notes: the tested construct may be that one
As a reminder, the EC50 is the concentration that produces a half-maximal response. Read a low EC50 as an effect from little substance. In the case of B1, the EC50 turned out to be 0.57 nM in experiment [1] and 1.3 nM in experiment [2].

B2: Humabody 1.113 (VHH)
VHH: EVQLVESGGGLVQPGGSLRLSCAASGFTLSNYWMNWVRQAPGKGLEWVANINQDGSERYYVDSVKGRFTISRDNAKNSLYLQMNSLRAEDTAVYYCARGGEGYGVDHYGLDVSGQGTTVTVSS
As usually defined, the Kd is the concentration at which binding is half-saturated. Low readings indicate tighter binding, high ones weaker binding. Broadly, the koff is the first-order rate constant of dissociation. Higher therefore signals fast dissociation. What is called kon is the rate constant with which the complex forms. In experiment [3], B2 yielded a Kd of 0.27 nM, a koff of 0.00028 s⁻¹ and a kon of 1.1e+06 M⁻¹ s⁻¹.

B3: 4.1-6GS-VH HSA 6GS-1.113-4GS (bispecific antibody)
chain: EVQLVESGGGVVQPGRSLRLSCAASGFSFSGYGMHWVRQAPGKGLEWVAYISYDGSNKYYADSVKGRFTISRDNSKNTLYLQMNSLRAEDTAVYYCAKDPAWGLRLGESSSYDFDIWGQGTMVTVSSGGGGSGGGGSGGGGSGGGGSGGGGSGGGGSEVQLVESGGGLVQPGRSLRLSCAASGFTFHHYAMHWVRQAPGKGLEWVSGISWNGNKITYADSVKGRFTISRDNAKNSLYLQMNSLRAEDTALYYCVRDSSLFIVGAPTFEHWGRGTLVTVSSGGGGSGGGGSGGGGSGGGGSGGGGSGGGGSEVQLVESGGGLVQPGGSLRLSCAASGFTLSNYWMNWVRQAPGKGLEWVANINQDGSERYYVDSVKGRFTISRDNAKNSLYLQMNSLRAEDTAVYYCARGGEGYGVDHYGLDVSGQGTTVTVSSGGGGSGGGGSGGGGSGGGGS
notes: Trispecific single-chain fusion of three VH domains (PSMA, human serum albumin, CD137)
With B3, a half-maximal effect in experiment [1] (EC50) was put at 1.1 nM.

B4: 4.1-6GS-1.113-6GS-VH (HSA)-4GS (bispecific antibody)
chain: EVQLVESGGGVVQPGRSLRLSCAASGFSFSGYGMHWVRQAPGKGLEWVAYISYDGSNKYYADSVKGRFTISRDNSKNTLYLQMNSLRAEDTAVYYCAKDPAWGLRLGESSSYDFDIWGQGTMVTVSSGGGGSGGGGSGGGGSGGGGSGGGGSGGGGSEVQLVESGGGLVQPGGSLRLSCAASGFTLSNYWMNWVRQAPGKGLEWVANINQDGSERYYVDSVKGRFTISRDNAKNSLYLQMNSLRAEDTAVYYCARGGEGYGVDHYGLDVSGQGTTVTVSSGGGGSGGGGSGGGGSGGGGSGGGGSGGGGSEVQLVESGGGLVQPGRSLRLSCAASGFTFHHYAMHWVRQAPGKGLEWVSGISWNGNKITYADSVKGRFTISRDNAKNSLYLQMNSLRAEDTALYYCVRDSSLFIVGAPTFEHWGRGTLVTVSSGGGGSGGGGSGGGGSGGGGS
notes: Trispecific single-chain fusion of three VH domains (PSMA, CD137, human serum albumin)
In experiment [4], B4 came in with a Kd of 0.12 nM, a koff of 5.2e-05 s⁻¹ and a kon of 440000 M⁻¹ s⁻¹. Also, the EC50 in experiment [5] was 0.57 nM. In experiment [1], this molecule yielded an EC50 of 2.2 nM.

B5: Humabody VH 4.1 (VHH)
VHH: EVQLVESGGGVVQPGRSLRLSCAASGFSFSGYGMHWVRQAPGKGLEWVAYISYDGSNKYYADSVKGRFTISRDNSKNTLYLQMNSLRAEDTAVYYCAKDPAWGLRLGESSSYDFDIWGQGTMVTVSS
In the case of B5, the binding result in experiment [6] was “no binding (tested: 1e-7 M (log10 -7))”.
